Assay results as given in the supplement of paper PMC7877785.
± gives the uncertainty stated by the source.

Experiment: self-splicing fitness, log relative to wild type (ln ratio); higher = more splicing; Tetrahymena group I intron in knt gene, E. coli kanamycin selection, DiMSum; sequences stand for … in CUCUCU…GGAGGGAAAAGUUAUCAGGCAUGCACCUGGUAGCUAGUCUUUAAACCAAUAGAUUGCAUCGGUUUAAAAGGCAAGACCGUCAAAUUGCGGGAAAGGGGUCAACAGCCGUUCAGUACCAAGUCUCAGGGGAAACUUUGAGAUGGCCUUGCAAAGGGUAUGGUAAUAAGCUGACGGACAUGGUCCUAACCACGCAGCCAAGUCCUAAGUCAACAGAUCUUCUGUUGAUAUGGAUGCAGUUCACAGACUAAAUGUCGGUCGGGGAAGAUGUAUUCUUCUCAUAAGAUAUAGUCGGACCUCUCCUUAAUGGGAGCUAGCGGAUGAAGUGAUGCAACACUGGAGCCGCUGGGAACUAAUUUGUAUGCGAAAGUAUAUUGAUUAGUUUUGGAGUACUCGUGGUCG
How it was run: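 Fitness was computed with DiMSum as the error-weighted combination of replicate fold changes, kanamycin versus none, each normalised to wild type. The library randomised all eight intron nucleotides of the P1ex region, with the intron placed in the knt kanamycin-resistance gene on pET-22b(+) in E. coli BL21(DE3). Six replicate transformations were grown overnight at 37°C or 30°C on LB agar with or without 25 μg/mL kanamycin, plus 100 μg/mL carbenicillin, 50 μM IPTG and 0.2% rhamnose. Pooled colonies were amplicon-sequenced on an Illumina HiSeq 2500.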

| Sequence | self-splicing fitness (ln) (30 °C) | self-splicing fitness (ln) (37 °C) |
| --- | --- | --- |
| CCAAAGCAAUAUUACGAAUA | -3.55 ± 0.32 | -1.51 ± 0.18 |
| CCAAAGCAAUAUUACGACAU | -3.658 ± 0.02 | -2.82 ± 0.037 |
| CCAAAGCAAUAUUACGACGC | -3.71 ± 0.35 | – |
| CCAAAGCAAUAUUACGAGGG | -3.76 ± 0.22 | -1.56 ± 0.16 |
| CCAAAGCAAUAUUACGAGGU | -4.24 ± 0.2 | -1.71 ± 0.13 |
| CCAAAGCAAUAUUACGAUAA | -3 ± 0.17 | -0.828 ± 0.18 |
| CCAAAGCAAUAUUACGAUAG | -0.734 ± 0.086 | 0.171 ± 0.11 |
| CCAAAGCAAUAUUACGCAAA | -3.41 ± 0.25 | -1.72 ± 0.17 |
| CCAAAGCAAUAUUACGCACA | -3.55 ± 0.34 | -1.66 ± 0.32 |
| CCAAAGCAAUAUUACGCCAA | -2.73 ± 0.2 | -1.96 ± 0.23 |
| CCAAAGCAAUAUUACGCCGG | -5.01 ± 0.41 | -2.38 ± 0.2 |
| CCAAAGCAAUAUUACGCGCC | -3.43 ± 0.21 | -2.71 ± 0.27 |
| CCAAAGCAAUAUUACGCGGG | -4.4 ± 0.42 | -1.38 ± 0.16 |
| CCAAAGCAAUAUUACGCUUU | -3.57 ± 0.16 | -2.73 ± 0.21 |
| CCAAAGCAAUAUUACGGACC | – | -1.51 ± 0.29 |
| CCAAAGCAAUAUUACGGACU | -2.27 ± 0.13 | -2.84 ± 0.22 |
| CCAAAGCAAUAUUACGGAGA | -4.23 ± 0.42 | -1.92 ± 0.23 |
| CCAAAGCAAUAUUACGGAUC | -3.45 ± 0.23 | -2.47 ± 0.39 |
| CCAAAGCAAUAUUACGGCAA | -3.15 ± 0.27 | -2.73 ± 0.25 |
| CCAAAGCAAUAUUACGGCCU | -3.59 ± 0.18 | -3.33 ± 0.37 |
| CCAAAGCAAUAUUACGGCGA | -3.26 ± 0.21 | -3.01 ± 0.19 |

| Sequence | self-splicing fitness (ln) (30 °C) | self-splicing fitness (ln) (37 °C) |
| --- | --- | --- |
| CCAAAGCAAUAUUACGGGCC | -2.51 ± 0.46 | -2.23 ± 0.42 |
| CCAAAGCAAUAUUACGGGCU | -2.45 ± 0.13 | -3.3 ± 0.23 |
| CCAAAGCAAUAUUACGGUAA | -3.35 ± 0.29 | -2.91 ± 0.23 |
| CCAAAGCAAUAUUACGGUCA | -3.54 ± 0.35 | -1.78 ± 0.25 |
| CCAAAGCAAUAUUACGUCGA | -3.66 ± 0.15 | -2.92 ± 0.18 |
| CCAAAGCAAUAUUACGUGGC | -1.62 ± 0.098 | -2.29 ± 0.21 |
| CCAAAGCAAUAUUACGUUCC | -3.37 ± 0.24 | -2.93 ± 0.32 |
| CCACAGCAAUAUUACGAACC | -3.86 ± 0.32 | -2.46 ± 0.35 |
| CCACAGCAAUAUUACGACAU | -3.702 ± 0.019 | -2.84 ± 0.037 |
| CCACAGCAAUAUUACGACCA | -3.99 ± 0.36 | -1.28 ± 0.2 |
| CCACAGCAAUAUUACGACCU | -3.94 ± 0.3 | -2.82 ± 0.18 |
| CCACAGCAAUAUUACGACGU | -3.18 ± 0.18 | -2.52 ± 0.15 |
| CCACAGCAAUAUUACGAGCC | -3.22 ± 0.42 | -2.3 ± 0.31 |
| CCACAGCAAUAUUACGAGGC | -3.21 ± 0.14 | -2.37 ± 0.21 |
| CCACAGCAAUAUUACGAGUA | -3.68 ± 0.2 | -2.31 ± 0.19 |
| CCACAGCAAUAUUACGCCCA | -2.81 ± 0.14 | -2.36 ± 0.16 |
| CCACAGCAAUAUUACGCGCG | -1.02 ± 0.042 | -0.161 ± 0.056 |
| CCACAGCAAUAUUACGCUGU | -4.34 ± 0.18 | -3.31 ± 0.27 |
| CCACAGCAAUAUUACGGAAU | -3.23 ± 0.17 | -2.21 ± 0.18 |
| CCACAGCAAUAUUACGGACC | -4.45 ± 0.31 | -1.54 ± 0.22 |
| CCACAGCAAUAUUACGGAGC | -3.58 ± 0.14 | -2.99 ± 0.19 |
